Molecular target: T1, Aβ1-42, monomer and/or protofibrils (form not told for the result) (human, UniProt P05067 672-713)
T1 construct: domain: amyloid beta (Aβ) 1-42 peptide; also called Aβ1-42 peptide or protofibrils; mixture of Aβ1-42 peptide (monomer) and protofibrils
Assay: BLI (Octet RED 96), antibody captured on anti-rat IgG probe; monomer or protofibrils not told

T1 sequence (P05067 672-713 limits assumed): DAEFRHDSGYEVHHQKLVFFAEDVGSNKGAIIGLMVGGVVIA

Kd: 1 pM
B1: monoclonal antibody 11G10 (antibody, V domains shown)
VH: EVQLQQSGAEIVKPGASVKLSCKASGYTFTSYWMHWVKQRPGQGLEWIGEIDPSDSYTNYNQKFKGKATLTVDKSSSTAYMQLRSLTSEDSAVYYCARSFHGNLFVYWGQGTLVTVSA
VL: QIVLTQSPAIMSASPGEKVTITCSASSSVSYMHWFQQKPGTSPKLWIYSTSNLATGVPARFSGSGSGTSYSLTISRMEAEDAATYYCQQRSSYPLTFGAGTKLEIK
